The assay addresses ovine ADAMTS13 (sheep (ovine)). The experiment in a line: cell-based or functional assay.

B1: monoclonal anti-ADAMTS13 antibody 17C7 (antibody, V domains shown)
VH: EVQLVESGGDLVKSGGSLKLSCAASGFIFSNYAMSWVRQTPEKRLEWGATITTGGFYTFYSDSVKGRFTISRDNAKNTLYLQMSSLRSEDTAMYYCARHRYDDYYALDYWGQGTSVTVSS
VL: ENVLTQSPAIMSTSPGEKVTMTCNVSSSVSYMRWFQQKSSTSPKLWIYDTSKLASGVPGRFSGSGSGHSYSLTISSMEADDVATYYCFQGNGYPLTFGAGTKLELK
modifications: Biotinylated when used as detector; the site is not stated and the letters cannot carry it.
With B1, the “half maximal inhibitory concentration (IC50) of ADAMTS13 activity in ovine plasma, FRETS-VWF71 assay” value is 2.4 µg/mL.

These data come from patent US20200308303A1 (KATHOLIEKE UNIVERSITEIT LEUVEN, published 2020).
